Experimental data reported in the supplement of paper PMC10567573.

B1: PHTF1 (parent)
chain: SRHLNSQVKKTTTRWCHIVRDSDS

Variants of: B1
Test: protein stability index of a GFP-peptide fusion (GPS, HEK-293T) (PSI 1-6); higher = more stable
Conditions: c terminus: a fixed tail appended
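Also: lentivirally expressed fusions sorted by FACS into six bins by GFP to DsRed ratio, PSI derived from sequencing read proportions per bin multiplied by bin number.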

Variant	protein stability index
SRHLNMQVKKTTTRWCHIVRDSDS [S6M]	1.93
SRHLNTQVKKTTTRWCHIVRDSDS [S6T]	1.83
SRHLNHQVKKTTTRWCHIVRDSDS [S6H]	2.29
SRHLNLQVKKTTTRWCHIVRDSDS [S6L]	1.68
SRHLNQQVKKTTTRWCHIVRDSDS [S6Q]	2.61
SRHLNCQVKKTTTRWCHIVRDSDS [S6C]	1.7
SRHLNRQVKKTTTRWCHIVRDSDS [S6R]	2.17
SRHLNDQVKKTTTRWCHIVRDSDS [S6D]	2.88
SRHLNGQVKKTTTRWCHIVRDSDS [S6G]	1.98
SRHLNYQVKKTTTRWCHIVRDSDS [S6Y]	2.86
SRHLNPQVKKTTTRWCHIVRDSDS [S6P]	3.03
SRHLNWQVKKTTTRWCHIVRDSDS [S6W]	2.5
SRHLNNQVKKTTTRWCHIVRDSDS [S6N]	2.44
SRHLNEQVKKTTTRWCHIVRDSDS [S6E]	2.31
SRHLNIQVKKTTTRWCHIVRDSDS [S6I]	2.22
SRHLNAQVKKTTTRWCHIVRDSDS [S6A]	2.29
SRHLNFQVKKTTTRWCHIVRDSDS [S6F]	1.45
SRHLNKQVKKTTTRWCHIVRDSDS [S6K]	2.38
SRHLNVQVKKTTTRWCHIVRDSDS [S6V]	1.94
SRHLNSQVLKTTTRWCHIVRDSDS [K9L]	2.21
SRHLNSQVGKTTTRWCHIVRDSDS [K9G]	2.55
SRHLNSQVMKTTTRWCHIVRDSDS [K9M]	2.37
SRHLNSQVYKTTTRWCHIVRDSDS [K9Y]	1.68
SRHLNSQVIKTTTRWCHIVRDSDS [K9I]	1.97

Variant	protein stability index
SRHLNSQVDKTTTRWCHIVRDSDS [K9D]	2.23
SRHLNSQVPKTTTRWCHIVRDSDS [K9P]	2.71
SRHLNSQVVKTTTRWCHIVRDSDS [K9V]	3.18
SRHLNSQVHKTTTRWCHIVRDSDS [K9H]	1.81
SRHLNSQVQKTTTRWCHIVRDSDS [K9Q]	2.02
SRHLNSQVFKTTTRWCHIVRDSDS [K9F]	1.83
SRHLNSQVCKTTTRWCHIVRDSDS [K9C]	2.13
SRHLNSQVNKTTTRWCHIVRDSDS [K9N]	2.35
SRHLNSQVSKTTTRWCHIVRDSDS [K9S]	2.26
SRHLNSQVTKTTTRWCHIVRDSDS [K9T]	1.83
SRHLNSQVEKTTTRWCHIVRDSDS [K9E]	2.33
SRHLNSQVAKTTTRWCHIVRDSDS [K9A]	2.48
SRHLNSQVWKTTTRWCHIVRDSDS [K9W]	1.85
SRHLNSQVRKTTTRWCHIVRDSDS [K9R]	2.16
SNHLNSQVKKTTTRWCHIVRDSDS [R2N]	1.87
SPHLNSQVKKTTTRWCHIVRDSDS [R2P]	1.89
SQHLNSQVKKTTTRWCHIVRDSDS [R2Q]	2.4
SGHLNSQVKKTTTRWCHIVRDSDS [R2G]	1.69
SVHLNSQVKKTTTRWCHIVRDSDS [R2V]	1.87
SHHLNSQVKKTTTRWCHIVRDSDS [R2H]	1.96
SEHLNSQVKKTTTRWCHIVRDSDS [R2E]	2.35
SAHLNSQVKKTTTRWCHIVRDSDS [R2A]	2.38
SYHLNSQVKKTTTRWCHIVRDSDS [R2Y]	2
SCHLNSQVKKTTTRWCHIVRDSDS [R2C]	2.12

Variant	protein stability index
SIHLNSQVKKTTTRWCHIVRDSDS [R2I]	2.2
SDHLNSQVKKTTTRWCHIVRDSDS [R2D]	2.3
SMHLNSQVKKTTTRWCHIVRDSDS [R2M]	2.13
SWHLNSQVKKTTTRWCHIVRDSDS [R2W]	2.08
SFHLNSQVKKTTTRWCHIVRDSDS [R2F]	2.56
STHLNSQVKKTTTRWCHIVRDSDS [R2T]	2.15
SSHLNSQVKKTTTRWCHIVRDSDS [R2S]	2.23
SLHLNSQVKKTTTRWCHIVRDSDS [R2L]	2.17
SKHLNSQVKKTTTRWCHIVRDSDS [R2K]	2.53
SRHLNSQVKNTTTRWCHIVRDSDS [K10N]	2.72
SRHLNSQVKQTTTRWCHIVRDSDS [K10Q]	2.19
SRHLNSQVKYTTTRWCHIVRDSDS [K10Y]	1.69
SRHLNSQVKLTTTRWCHIVRDSDS [K10L]	1.8
SRHLNSQVKITTTRWCHIVRDSDS [K10I]	1.61
SRHLNSQVKHTTTRWCHIVRDSDS [K10H]	2.29
SRHLNSQVKTTTTRWCHIVRDSDS [K10T]	1.98
SRHLNSQVKVTTTRWCHIVRDSDS [K10V]	2.71
SRHLNSQVKETTTRWCHIVRDSDS [K10E]	2.63
SRHLNSQVKMTTTRWCHIVRDSDS [K10M]	2.37
SRHLNSQVKFTTTRWCHIVRDSDS [K10F]	1.78
SRHLNSQVKSTTTRWCHIVRDSDS [K10S]	2.87
SRHLNSQVKDTTTRWCHIVRDSDS [K10D]	2.56
SRHLNSQVKRTTTRWCHIVRDSDS [K10R]	1.8
SRHLNSQVKCTTTRWCHIVRDSDS [K10C]	2.11

Variant	protein stability index
SRHLNSQVKATTTRWCHIVRDSDS [K10A]	2.76
SRHLNSQVKGTTTRWCHIVRDSDS [K10G]	2.55
SRHLNSQVKPTTTRWCHIVRDSDS [K10P]	2.28
SRHLNSQVKWTTTRWCHIVRDSDS [K10W]	1.97
SRHSNSQVKKTTTRWCHIVRDSDS [L4S]	2.29
SRHENSQVKKTTTRWCHIVRDSDS [L4E]	2.56
SRHTNSQVKKTTTRWCHIVRDSDS [L4T]	2.06
SRHANSQVKKTTTRWCHIVRDSDS [L4A]	2.58
SRHFNSQVKKTTTRWCHIVRDSDS [L4F]	3.09
SRHNNSQVKKTTTRWCHIVRDSDS [L4N]	2.05
SRHDNSQVKKTTTRWCHIVRDSDS [L4D]	1.99
SRHKNSQVKKTTTRWCHIVRDSDS [L4K]	2.56
SRHRNSQVKKTTTRWCHIVRDSDS [L4R]	1.95
SRHVNSQVKKTTTRWCHIVRDSDS [L4V]	2.03
SRHINSQVKKTTTRWCHIVRDSDS [L4I]	2.75
SRHQNSQVKKTTTRWCHIVRDSDS [L4Q]	2.12
SRHHNSQVKKTTTRWCHIVRDSDS [L4H]	2.15
SRHGNSQVKKTTTRWCHIVRDSDS [L4G]	1.8
SRHWNSQVKKTTTRWCHIVRDSDS [L4W]	2.25
SRHPNSQVKKTTTRWCHIVRDSDS [L4P]	2.44
SRHYNSQVKKTTTRWCHIVRDSDS [L4Y]	1.76
SRHMNSQVKKTTTRWCHIVRDSDS [L4M]	1.76
SRLLNSQVKKTTTRWCHIVRDSDS [H3L]	2.08
SRMLNSQVKKTTTRWCHIVRDSDS [H3M]	2.15

Variant	protein stability index
SRFLNSQVKKTTTRWCHIVRDSDS [H3F]	2.77
SRVLNSQVKKTTTRWCHIVRDSDS [H3V]	2.36
SRALNSQVKKTTTRWCHIVRDSDS [H3A]	2.23
SRSLNSQVKKTTTRWCHIVRDSDS [H3S]	1.5
SRWLNSQVKKTTTRWCHIVRDSDS [H3W]	1.53
SRCLNSQVKKTTTRWCHIVRDSDS [H3C]	1.95
SRELNSQVKKTTTRWCHIVRDSDS [H3E]	2.52
SRPLNSQVKKTTTRWCHIVRDSDS [H3P]	1.64
SRDLNSQVKKTTTRWCHIVRDSDS [H3D]	1.58
SRTLNSQVKKTTTRWCHIVRDSDS [H3T]	2.23
SRGLNSQVKKTTTRWCHIVRDSDS [H3G]	2.21
SRKLNSQVKKTTTRWCHIVRDSDS [H3K]	2.02
SRILNSQVKKTTTRWCHIVRDSDS [H3I]	1.25
SRQLNSQVKKTTTRWCHIVRDSDS [H3Q]	2.28
SRRLNSQVKKTTTRWCHIVRDSDS [H3R]	1.79
SRNLNSQVKKTTTRWCHIVRDSDS [H3N]	1.69
SRHLNSSVKKTTTRWCHIVRDSDS [Q7S]	2.8
SRHLNSRVKKTTTRWCHIVRDSDS [Q7R]	2
SRHLNSEVKKTTTRWCHIVRDSDS [Q7E]	2.4
SRHLNSNVKKTTTRWCHIVRDSDS [Q7N]	1.78
SRHLNSKVKKTTTRWCHIVRDSDS [Q7K]	2.45
SRHLNSMVKKTTTRWCHIVRDSDS [Q7M]	1.73
SRHLNSTVKKTTTRWCHIVRDSDS [Q7T]	2.82
SRHLNSGVKKTTTRWCHIVRDSDS [Q7G]	1.89

Variant	protein stability index
SRHLNSCVKKTTTRWCHIVRDSDS [Q7C]	2.08
SRHLNSVVKKTTTRWCHIVRDSDS [Q7V]	1.4
SRHLNSDVKKTTTRWCHIVRDSDS [Q7D]	2.65
SRHLNSLVKKTTTRWCHIVRDSDS [Q7L]	1.84
SRHLNSHVKKTTTRWCHIVRDSDS [Q7H]	3.08
SRHLNSAVKKTTTRWCHIVRDSDS [Q7A]	2.6
SRHLNSIVKKTTTRWCHIVRDSDS [Q7I]	2.17
SRHLNSFVKKTTTRWCHIVRDSDS [Q7F]	1.22
SRHLNSWVKKTTTRWCHIVRDSDS [Q7W]	2.84
SRHLNSYVKKTTTRWCHIVRDSDS [Q7Y]	1.68
SRHLNSPVKKTTTRWCHIVRDSDS [Q7P]	2.69
PRHLNSQVKKTTTRWCHIVRDSDS [S1P]	2.47
RRHLNSQVKKTTTRWCHIVRDSDS [S1R]	2.51
IRHLNSQVKKTTTRWCHIVRDSDS [S1I]	1.23
MRHLNSQVKKTTTRWCHIVRDSDS [S1M]	2.52
WRHLNSQVKKTTTRWCHIVRDSDS [S1W]	2.1
TRHLNSQVKKTTTRWCHIVRDSDS [S1T]	2.09
YRHLNSQVKKTTTRWCHIVRDSDS [S1Y]	2.25
FRHLNSQVKKTTTRWCHIVRDSDS [S1F]	1.76
DRHLNSQVKKTTTRWCHIVRDSDS [S1D]	3.06
VRHLNSQVKKTTTRWCHIVRDSDS [S1V]	1.84
CRHLNSQVKKTTTRWCHIVRDSDS [S1C]	2.07
QRHLNSQVKKTTTRWCHIVRDSDS [S1Q]	2.38
NRHLNSQVKKTTTRWCHIVRDSDS [S1N]	2.51

Variant	protein stability index
HRHLNSQVKKTTTRWCHIVRDSDS [S1H]	1.46
ARHLNSQVKKTTTRWCHIVRDSDS [S1A]	2.52
GRHLNSQVKKTTTRWCHIVRDSDS [S1G]	2.06
KRHLNSQVKKTTTRWCHIVRDSDS [S1K]	2.26
LRHLNSQVKKTTTRWCHIVRDSDS [S1L]	1.51
ERHLNSQVKKTTTRWCHIVRDSDS [S1E]	1.8
SRHLPSQVKKTTTRWCHIVRDSDS [N5P]	2.22
SRHLTSQVKKTTTRWCHIVRDSDS [N5T]	2.38
SRHLSSQVKKTTTRWCHIVRDSDS [N5S]	1.92
SRHLFSQVKKTTTRWCHIVRDSDS [N5F]	2.02
SRHLGSQVKKTTTRWCHIVRDSDS [N5G]	2.79
SRHLESQVKKTTTRWCHIVRDSDS [N5E]	1.59
SRHLYSQVKKTTTRWCHIVRDSDS [N5Y]	2.16
SRHLLSQVKKTTTRWCHIVRDSDS [N5L]	1.92
SRHLQSQVKKTTTRWCHIVRDSDS [N5Q]	1.92
SRHLDSQVKKTTTRWCHIVRDSDS [N5D]	2.53
SRHLMSQVKKTTTRWCHIVRDSDS [N5M]	1.45
SRHLASQVKKTTTRWCHIVRDSDS [N5A]	2.19
SRHLISQVKKTTTRWCHIVRDSDS [N5I]	2.73
SRHLWSQVKKTTTRWCHIVRDSDS [N5W]	2.27
SRHLCSQVKKTTTRWCHIVRDSDS [N5C]	2.33
SRHLRSQVKKTTTRWCHIVRDSDS [N5R]	3.93
SRHLVSQVKKTTTRWCHIVRDSDS [N5V]	1.29
SRHLKSQVKKTTTRWCHIVRDSDS [N5K]	1.8

Variant	protein stability index
SRHLHSQVKKTTTRWCHIVRDSDS [N5H]	2.56
SRHLNSQQKKTTTRWCHIVRDSDS [V8Q]	1.98
SRHLNSQYKKTTTRWCHIVRDSDS [V8Y]	1.57
SRHLNSQNKKTTTRWCHIVRDSDS [V8N]	1.78
SRHLNSQIKKTTTRWCHIVRDSDS [V8I]	2.35
SRHLNSQGKKTTTRWCHIVRDSDS [V8G]	2.57
SRHLNSQWKKTTTRWCHIVRDSDS [V8W]	1.34
SRHLNSQPKKTTTRWCHIVRDSDS [V8P]	2.18
SRHLNSQEKKTTTRWCHIVRDSDS [V8E]	2.79
SRHLNSQMKKTTTRWCHIVRDSDS [V8M]	2.08
SRHLNSQHKKTTTRWCHIVRDSDS [V8H]	2.22
SRHLNSQRKKTTTRWCHIVRDSDS [V8R]	1.78
SRHLNSQCKKTTTRWCHIVRDSDS [V8C]	2.6
SRHLNSQTKKTTTRWCHIVRDSDS [V8T]	2.1
SRHLNSQFKKTTTRWCHIVRDSDS [V8F]	2.57
SRHLNSQSKKTTTRWCHIVRDSDS [V8S]	2.61
SRHLNSQKKKTTTRWCHIVRDSDS [V8K]	1.79
SRHLNSQDKKTTTRWCHIVRDSDS [V8D]	2.06
SRHLNSQLKKTTTRWCHIVRDSDS [V8L]	2.07
SRHLNSQAKKTTTRWCHIVRDSDS [V8A]	2.26
